Patent US20140056966A1, “CONJUGATE ANGIOSTATION OR ITS FRAGMENT, THE METHOD OF PRODUCING THE CONJUGATE AND USE THEREOF” (PROTGEN LTD., priority 2007, published 2014)
Where two headings read alike, the source gives them in different places.

Columns and labels:
[1] = body weight of animals in the NCI-H226 xenograft model; settings: 20 mg/kg; Day 11 and Day 25; ANOVA p<0.05
Method: (§1) Female Balb/c nu/nu mice aged 6-8 weeks of about 18-20 g weight (institute of laboratory animal sciences, CAMS) were used in this experiment. Mice were subcutaneously inoculated on the right side with NCI-H226 cells (human pancreatic cancer cell line, derived from ATCC, ATCC number CRL-5826). When the tumor volume reached about 80-125 mm^3, the animals were divide into 3 groups randomly (6 per group). […] The body weight and tumor volume of the animals were measured twice a week. Sacrifice the animals on day 28, collect the tumors and take photographs.

NCI-H226 NSCLC xenograft = NCI-H226 NSCLC xenograft model, tumor burden; format: in vivo, Balb/c nu/nu mice; settings: for T/C ratio: PEG-K1-3 4.5 mg/kg i.v., Taxol 20 mg/kg i.v.; for tumor inhibition rate: tumor burden 21 days after treatment, vs control group, PEG-K1-3 4.5 mg/kg, Taxol 20 mg/kg
Method: as §1

[2] = test system: H22 hepatocellular carcinoma; assay: early-stage H22 hepatocellular carcinoma mice tumor model; format: in vivo, Balb/c mice; settings: subcutaneous, 3 weeks, tumor weight day 22
Method: K1-3 used in this example is K1-3 having the sequence of SEQ ID NO.2. Experiments were performed to observe the in vive inhibitory activity of K1-3 with PEG coupled to its N-terminus on early-stage H22 tumor. Balb/c mice of about 20 g were used in the experiment (Beijing Vital River Laboratory Animal Co. Ltd.). Mice were inoculated at back with H22 cells, 1×10^6 cells per mouse. The mice were then randomly grouped after the tumor volume reaches 1 cm^3, 8 mice per group, including the negative control group (sodium acetate), the positive control group (K1-3, 4.5 mg/kg body weight, administered daily), three treatment groups (K1-3 with PEG coupled to its N-terminus, 1.5 mg/kg body weight, administered daily, or 4.5 mg/kg body weight, administered daily, twice per week, or weekly, respectively). The administration was performed by subcutaneous injection and lasted for 3 weeks. The mice were sacrificed on day 22, the weight of tumor was measured, and the efficacy was evaluated by tumor inhibition rate. […] Since the in vivo half life of K1-3 with PEG coupled to its N-terminus are longer than that of unmodified K1-3 of the same dosage, the biological activity K1-3 with PEG coupled to its N-terminus is higher than that of the unmodified K1-3 of the same concentration when administration intervals are extended.

[3] = test system: human umbilical vein endothelial cell (HUVEC); format: cell-based; settings: 16 hours
Method: The K1-3 used in this example has the sequence of SEQ ID NO.2. 2×10^5/ml HUVEC were inoculated in 12-well plates (Corning) and cultured in the M199 medium (Hyclone) containing 20% fetal bovine serum (Hyclone) to exponential phase. After starved for 12 hours, crossed wounds were created in each well. Suspending cells were washed away. Experimental groups were as follows: negative control (PBS), positive control (K1-3 at the concentration of 0.04, 0.4 and 4 μg/ml) and treatment group (K1-3 with PEG at the concentration of 0.04, 0.4 and 4 μg/ml). After culturing for 16 hours at 37° C., the amounts of migrated cells were detected. At the concentration of 0.04-4 μg/ml, the inhibitory effect of cell migration was improved with the increase of protein concentration.

[4] = test system: HeLa (human cervical cancer); assay: proliferation of tumor cells (HeLa), MTT; format: cell-based; settings: 48 hours; for concentration showing the highest anti-proliferation effect on tumor cells: among 0.4, 4, 40 and 150 μg/ml
Method: K1-3 used in this example is the K1-3 having the sequence of SEQ ID NO.2. Specifically, HeLa (ATCC#CCL-2, USA) were added into 96-well plates at 20,000 cells per well, then cultured in the DMEM medium (Hyclone) containing 10% serum to exponential phase. After starving for 12 hours, cells were treated with different concentrations of modified or unmodified K1-3 for measurement of cell proliferation. Experimental groups were as follows: negative control group (PBS), positive control groups (0.4, 4, 40, and 150 μg/ml K1-3), and treatment group (0.4, 4, 40, and 150 μg/ml K1-3 with PEG coupled to its N-terminus). After culturing for 48 hours at 37° C., the cells in the plates were treated with MTT for 4 h at 37° C. Then DMSO was added, and the absorption was measured at 570 nm by microplate spectrophotometer.

[5] = in vivo half-life of K1-3 with or without PEG modification in Wistar rat
Method: The K1-3 used in this example has the sequence of SEQ ID NO.2. The efficacy of tK1-3 with PEG coupled to its N-terminus was evaluated by measuring the in vivo half-life of K1-3 with or without PEG modification in Wistar rat (Vitalriver Experimental Animal Center), respectively. Two healthy Wistar rat (about 200 g) were injected intraveniously with K1-3 and K1-3 modified with PEG, respectively, at a dose of 4.5 mg/kg body weight. Blood samples were taken from eye sockets of the rats at 0, 5, 10, 30 minutes, 1, 2, 4, 8, 16, 24, 36, 48, 72, 96, 120 and 144 hours. Plasma was then collected and the concentration of K1-3 with or without PEG modification was measured by sandwich ELISA, respectively.

[6] = test system: bovine capillary endothelial cell (BCE); settings: cited from earlier work; for inhibition of BCE proliferation: fragments of recombinant human plasminogen
[7] = test system: human umbilical vein endothelial cell (HUVEC); assay: trans-well migration of HUVEC; format: cell-based; settings: 8 hours
Method: The K1-3 used in this example has the sequence of SEQ ID NO.2. HUVECs (Protgen, Beijing) were cultured in the M199 medium (Hyclone) containing 20% fetal bovine serum (Hyclone) to exponential phase. After starved for 12 hours, cells were added into trans-well inserts (Millipore, USA) at the concentration of 10,000 cells per well for measurement of cell migration. Mediums for migration assay included M199 medium with 5% serum. For the treatment groups, K1-3 with or without modification were added to the cells at 0.004, 0.04, 0.4 and 4 μg/ml. After culturing for 8 hours at 37° C., the cells in the trans-well inserts were fixed with 1% glutaraldehyde (Beijing chemical plant, China). […] The migrated cell number was counted under microscope (Olympus). Cells in three different fields in one plate treatment were counted and then the inhibition rate was calculated. At the concentration of 0.04-4 μg/ml, the inhibitory effect of cell migration improves with the increase of protein concentration.

B16 melanoma = assay: late-stage B16 melanoma mice tumor model; format: in vivo, C57B/L mice; settings: subcutaneous, tumor weight day 11
Method: K1-3 used in this example is K1-3 having the sequence of SEQ ID NO.2. Experiments were performed to observe the in vivo inhibitory activity of K1-3 with PEG coupled to its N-terminus on late-stage B16 tumor. C57B/L mice of about 20 g were used in the experiment (Beijing Vital River Laboratory Animal Co. Ltd.). Mice were inoculated at back with B16 cells (ATCC#CRL-6475, USA), 1×10^6 cells per mouse. The mice were then randomly grouped after the tumor volume reaches 1 cm^3, 8 mice per group, including the negative control group (sodium acetate), the positive control group (K1-3, 4.5 mg/kg body weight, administered daily), three treatment groups (K1-3 with PEG coupled to its N-terminus, 1.5 mg/kg body weight, administered daily, or 4.5 mg/kg body weight, administered daily, every 3 days, every 6 days, or every 9 days, respectively). Administration was performed by subcutaneous injection and lasted for 10 days. The mice were sacrificed on day 11, the weight of tumor was measured, and the efficacy was evaluated by tumor inhibition rate.

[8] = Wistar rat, injected intravenously, 4.5 mg/kg body weight, plasma, sandwich ELISA
[9] = 4.5 mg/kg body weight daily, 10 days

## CC(=O)O[C@H]1C(=O)[C@@]2(C)[C@H]([C@H](OC(=O)c3ccccc3)[C@]3(O)C[C@H](OC(=O)[C@H](O)[C@@H](NC(=O)c4ccccc4)c4ccccc4)C(C)=C1C3(C)C)[C@]1(OC(C)=O)CO[C@@H]1C[C@@H]2O [Taxol, reference compound]
[1]
  average body weight compared with the control group: significantly lower
NCI-H226 NSCLC xenograft; 20 mg/kg i.v., Day 11, Day 15, Day 18
  tumor burden compared with the control group: significantly difference
NCI-H226 NSCLC xenograft; Day 4
  T/C ratio: 69%
NCI-H226 NSCLC xenograft; Day 11
  T/C ratio: 39%
NCI-H226 NSCLC xenograft; Day 18
  T/C ratio: 28%
NCI-H226 NSCLC xenograft; Day 25
  T/C ratio: 18%
NCI-H226 NSCLC xenograft
  tumor inhibition rate: 84.43%

B1: K1-3: angiostatin fragment K1-3 (fragment of plasminogen), recombinant, sequence of SEQ ID NO.2, expressed in E. coli (protein, listed as Homo sapiens)
chain: MVYLSECKTGNGKNYRGTMSKTKNGITCQKWSSTSPHRPRFSPATHPSEGLEENYCRNPDNDPQGPWCYTTDPEKRYDYCDILECEEECMHCSGENYDGKISKTMSGLECQAWDSQSPHAHGYIPSKFPNKNLKKNYCRNPDRELRPWCFTTDPNKRWELCDIPRCTTPPPSSGPTYQCLKGTGENYRGNVAVTVSGHTCQHWSAQTPHTHNRTPENFPCKNLDENYCRNPDGKRAPWCHTTNSQVRWEYCKIPSCDSSP
[2]; 4.5 mg/kg body weight daily
  tumor inhibition rate: 51%
[3]; 0.04 μg/ml
  inhibition rate on cells migration (wound healing): 0%
[3]; 0.4 μg/ml
  inhibition rate on cells migration (wound healing): 20%
[3]; 4 μg/ml
  inhibition rate on cells migration (wound healing): 25%
[4]
  concentration showing the highest anti-proliferation effect on tumor cells: 40 µg/mL
[5]; [8]
  half-life: 12.2 h
[6]
  inhibitory effect on cell proliferation compared with angiostatin K1-4: significantly stronger
  inhibition of BCE proliferation: effectively inhibit
[7]; 0.04 μg/ml
  inhibition rate on cells migration: 43%
[7]; 0.4 μg/ml
  inhibition rate on cells migration: 68%
[7]; 4 μg/ml
  inhibition rate on cells migration: 76%
B16 melanoma; [9]
  tumor inhibition rate: 45%

B2: PEG-K1-3: K1-3 having the sequence of SEQ ID NO:2 modified with 20 kDa PEG at the N-terminal α-amino group (conjugate, listed as Homo sapiens)
chain: MVYLSECKTGNGKNYRGTMSKTKNGITCQKWSSTSPHRPRFSPATHPSEGLEENYCRNPDNDPQGPWCYTTDPEKRYDYCDILECEEECMHCSGENYDGKISKTMSGLECQAWDSQSPHAHGYIPSKFPNKNLKKNYCRNPDRELRPWCFTTDPNKRWELCDIPRCTTPPPSSGPTYQCLKGTGENYRGNVAVTVSGHTCQHWSAQTPHTHNRTPENFPCKNLDENYCRNPDGKRAPWCHTTNSQVRWEYCKIPSCDSSP
modifications: 20 kDa PEG at N-terminus
[2]; 1.5 mg/kg body weight daily
  tumor inhibition rate: 54%
[2]; 4.5 mg/kg body weight daily
  tumor inhibition rate: 60%
[2]; 4.5 mg/kg body weight weekly
  tumor inhibition rate: 50%
[3]; 0.04 μg/ml
  inhibition rate on cells migration (wound healing): 35%
[3]; 0.4 μg/ml
  inhibition rate on cells migration (wound healing): 40%
[3]; 4 μg/ml
  inhibition rate on cells migration (wound healing): 105%
[4]; 0.4-150 μg/ml
  inhibition of the tumor cell proliferation compared with unmodified K1-3: more potent than unmodified K1-3
[4]
  concentration showing the highest anti-proliferation effect on tumor cells: 40 µg/mL
NCI-H226 NSCLC xenograft; 4.5 mg/kg i.v., p<0.05
  tumor burden compared with the control group: significantly decreased
NCI-H226 NSCLC xenograft; Day 4
  T/C ratio: 73%
NCI-H226 NSCLC xenograft; Day 11
  T/C ratio: 63%
NCI-H226 NSCLC xenograft; Day 18
  T/C ratio: 62%
NCI-H226 NSCLC xenograft; Day 25
  T/C ratio: 66%
NCI-H226 NSCLC xenograft
  tumor inhibition rate: 17.18%
[5]; [8]
  half-life: 81.5 h
[5]; summary statement, refers to example 4
  half-life: 81.5 h
[7]; 0.04 μg/ml
  inhibition rate on cells migration: 58%
[7]; 0.4 μg/ml
  inhibition rate on cells migration: 65%
[7]; 4 μg/ml
  inhibition rate on cells migration: 69%
B16 melanoma; 1.5 mg/kg body weight daily, 10 days
  tumor inhibition rate: 28%
B16 melanoma; [9]
  tumor inhibition rate: 60%
B16 melanoma; 4.5 mg/kg body weight every 3 days
  tumor inhibition rate: 34%
B16 melanoma; 4.5 mg/kg body weight every 6 days
  tumor inhibition rate: 25%
B16 melanoma; 4.5 mg/kg body weight every 9 days
  tumor inhibition rate: 24%

B3: K3: fragment of recombinant human plasminogen; angiostatin K3, SEQ ID NO:5 (protein, listed as Homo sapiens)
chain: CLKGTGENYRGNVAVTVSGHTCQHWSAQTPHTHNRTPENFPCKNLDENYCRNPDGKRAPWCHTTNSQVRWEYCKIPSC
[6]
  inhibition of BCE proliferation: effectively inhibit

B4: K1: fragment of recombinant human plasminogen; angiostatin K1, SEQ ID NO:3 (protein, listed as Homo sapiens)
chain: CKTGNGKNYRGTMSKTKNGITCQKWSSTSPHRPRFSPATHPSEGLEENYCRNPDNDPQGPWCYTTDPEKRYDYCDILEC
[6]
  inhibition of BCE proliferation: effectively inhibit

B5: K2: fragment of recombinant human plasminogen; angiostatin K2, SEQ ID NO:4 (protein, listed as Homo sapiens)
chain: CMHCSGENYDGKISKTMSGLECQAWDSQSPHAHGYIPSKFPNKNLKKNYCRNPDRELRPWCFTTDPNKRWELCDIPRC
[6]
  inhibition of BCE proliferation: effectively inhibit
